This is an account of results in patent US20160289305A1 (INTERNATIONAL AIDS VACCINE INITIATIVE, published 2016).

The target in this experiment is T1, YU2 gp120 (HIV-1, UniProt P35961 32-498).
T1 construct: domain: gp120
The experiment can be described thus: ELISA. For orientation: ELISA stands for enzyme-linked immunosorbent assay.

B1: VRC-PG-05 (antibody, V domains shown)
VH: EVQLVESGGGLVQPGGSLRLSCAASGFPFNRDWMTWVRQAPGKGLEWVANINMDGDKKDYVDSVKGRFTISRDNAKTSLYLQMNSLRAGDTAVYYCARIRQVSKYLQWYPGVFEMWGQGTMVTVSS
VL: DIVMTQSPDSLAVSLGERATIHCKSSQSVLYRPNNRNYVAWYQQKPGQPPRLLIHWASFRESGVPDRFTGSGSGTDFTLTISSLQAEDVAVYYCQQYFFLYSFGGGTKLEIN
As to B1, the binding result is on record as “binds”.
